In patent US9091695B2, “Methods and systems for quantification of peptides and other analytes” (Laboratory Corporation of America Holdings, priority 2007, dated 2015):

Assays:
[1] = Stock solution / internal standard solution storage stability; type: physicochemical
[2] = Autosampler stability of calibrators and quality control samples; type: physicochemical; details: stored in the autosampler at 10° C.
Procedure: The autosampler stability was evaluated using calibrators and quality control samples (LLOQ, mid-range and ULOQ using both pooled plasma and blank plasma calibrators). Duplicate curves were included with the batch. The first calibration curve was injected, then after 24 hours, the remaining quality control and calibration curve samples were injected. Both calibration curves were used to ascertain accuracy of pooled patient and blank plasma controls. The acceptability criteria is defined such that the standard curve back-fit data should be 80-120% at LLOQ, 85-115% at other concentrations of expected curve values. Mean accuracy of each quality control sample should be ≦±20% at the LLOQ and ≦±15% at all other levels.

Question: Which “Time internal standard solution is stable” value ([1]; refrigerated at 4° C.) does the source give for “[(U-23C9, 15N)-Tyr5], [(U-23C6, 15N)-Leu7], [(U-19C5, 15N)-Pro9]-Gonadorelin [GnRH internal standard]” here?
Answer: up to 51 days

Question: For “pGlu-His-Trp-Ser-Tyr-Gly-Leu-Arg-Pro-Gly-NH2 [GnRH]”, which “Time stock solution is stable” value ([1]; frozen at −70° C.) is on record?
Answer: up to 376 days

Question: And the “Time stable in the autosampler” value [2]?
Answer: 24 h
